Results taken from patent US20090074766A1, “Methods of inhibiting HIV-2 infection” (priority 2007, published 2009).
Values joined by “and” are separate entries in the source; they are usually repeats but may differ in a detail not shown here. Equal entries are not always repeated. Where two headings read alike, the source gives them in different places.

Experiments:
[1] = test system: HIV-1; settings: treatment period of 10-14 days, dose-dependent; cited from earlier work
[2] = test system: R5 HIV-1 CC 1/85; experiment: Inhibition of replication in PBMC cultures, RT activity readout: HIV-1 CC 1/85; type: cell-based
Protocol: (§1) Viruses: All virus isolates were grown and titered exclusively in stimulated PBMC as described previously. […] The HIV-2 isolates used in this study have been previously described (Owen, S. M., Ellenberger, D., Rayfield, M., Wiktor, S., Michel, P., Grieco, M. H., Gao, F., Hahn, B. H., and Lai, R. B. 1998. Genetically Divergent Strains of Human Immunodeficiency Virus Type 2 Use Multiple Coreceptors for Entry. J Virol 72:5425-5432) and were obtained from the NIH AIDS Research and Reference Reagent Program.
(§2) PA14 (Lot # DF-021204) was produced for reagent use in the Research & Development laboratories of Progenics Pharmaceuticals Inc.
(§3) Inhibition of HIV-1 and HIV-2 replication in PBMC cultures: PBMC were isolated from 34 healthy blood donors with Ficoll-Hypaque (all media from Cellgro, Herndon, Va.) and depleted of CD8+ cells using RosetteSep CD8 depletion cocktail (StemCell Technologies) according to the manufacturer's instructions. Equal numbers of cells from each donor were then separately stimulated with 5 ug phytohemagglutinin/ml (Sigma, St. Louis, Mo.) or with surface-immobilized anti-CD3 antibody OKT3 in RPMI 1640 medium containing 10% fetal calf serum, 100 Units of interleukin-2/ml (NIH AIDS Research and Reference Reagent Program), glutamine, and antibiotics (PBMC culture medium) as previously described. After 72 hours, equal numbers of PBMC stimulated by one of these two methods from each donor were combined for use in infection assays as follows. […] The virus inoculum was adjusted to 400 to 2,000 times the TCID50 per ml in PBMC culture medium, and a 50-ul aliquot was added to each culture. The inhibitory doses refer to the concentrations of the agents present at this point in the culture, when virus, cells, and inhibitors were all present at their final concentrations. Reverse Transcriptase (RT) activity was measured on Day 7 post infection (pi) for HIV-1 and Day 10 pi for HIV-2 by the Reverse Transcriptase Assay, Colorimetric kit, #11 468 120 910, Roche (Switzerland) according to the manufacturer's instructions with the following exception: neither ultracentrifugation nor PEG precipitation of the culture supernatants was performed before viral lysis.
(§4) The inhibition data were analyzed using GraphPad Prism software (GraphPad Software, San Diego, Calif.). A 4-parameter logistic fit was used calculate the concentration of inhibitor that afforded a 50% and a 90% reduction in RT activity. […] The % inhibitions where best-fit curve reached a top plateau, also as calculated by GraphPad Prism software, are reported as well as maximum percent inhibition (MPI). […] Inhibition curves with a poor sigmoid fit (R^2<0.7) were excluded from data analysis.

[3] = test system: HIV-1; settings: Olson et al., 1999; Trkola et al., 2001; cited from earlier work
[4] = test system: R5 HIV-2 310072; experiment: Inhibition of replication in PBMC cultures, RT activity readout: HIV-2 310072; type: cell-based
Protocol: as §1, §2, §3, §4

[5] = test system: CCR5 lymphocytes; type: in vivo, human
Protocol: Whole blood specimens were combined separately with the indicated phycoerythrin-labeled anti-CCR5 antibodies or with appropriate isotype-control antibodies. Erythocytes were lysed and leukocytes were stabilized using the ImmunoPrep Reagent System (Beckman Coulter), and the cells were analyzed on a TQ Prep™ flow cytometry workstation (Beckman Coulter). Data were expressed as the percent of CCR5 cells relative to all cells gated in the analysis.
For up to 60 days post-treatment, at the times indicated in FIG. 6, blood was collected and analyzed for CCR5 lymphocyte levels.
Background binding of isotype control antibodies was unchanged.

[6] = test system: R5X4 HIV-2 77618; experiment: Inhibition of replication in PBMC cultures, RT activity readout: HIV-2 77618; type: cell-based
Protocol: as §1, §2, §3, §4

[7] = test system: HIV-1; settings: Table 2 comparison; cited from earlier work
[8] = test system: R5 HIV-2 A2267; experiment: Inhibition of replication in PBMC cultures, RT activity readout: HIV-2 A2267; type: cell-based
Protocol: as §1, §2, §3, §4

[9] = test system: HIV-1 JR-FL; experiment: Previous studies (300-TD-028): HIV-1 replication in PBMC quantitated by p24 ELISA, JR-FL; type: cell-based
Protocol: The EC values were measured by p24 ELISA in previous studies, according to published methods. Because the p24 ELISA cannot efficiently quantitate p24 from the HIV-2 isolates used in this study, a commercial ELISA that measures reverse transcriptase was chosen as a readout for both the HIV-2 and HIV-1 infection assays in the present study.

[10] = test system: R5X4 HIV-2 310342; experiment: Inhibition of replication in PBMC cultures, RT activity readout: HIV-2 310342; type: cell-based
Protocol: as §1, §2
Inhibition of HIV-1 and HIV-2 replication in PBMC cultures: PBMC were isolated from 34 healthy blood donors with Ficoll-Hypaque (all media from Cellgro, Herndon, Va.) and depleted of CD8+ cells using RosetteSep CD8 depletion cocktail (StemCell Technologies) according to the manufacturer's instructions. […] Reverse Transcriptase (RT) activity was measured on Day 7 post infection (pi) for HIV-1 and Day 10 pi for HIV-2 by the Reverse Transcriptase Assay, Colorimetric kit, #11 468 120 910, Roche (Switzerland) according to the manufacturer's instructions with the following exception: neither ultracentrifugation nor PEG precipitation of the culture supernatants was performed before viral lysis. […]

[11] = Phase 1b clinical trial: pharmacokinetics (serum PRO 140 by ELISA); settings: non-compartmental analysis, HIV-infected subjects
[12] = test system: R5 HIV-1 JR-FL; experiment: Inhibition of replication in PBMC cultures, RT activity readout: HIV-1 JR-FL; type: cell-based
Protocol: as §1, §2, §3, §4

[13] = CC 1/85, current study n = 5, mean
[14] = individual assays (Source), previous study, p24 ELISA
[15] = previous studies n = 33, median
[16] = HIV-1 JR-FL, R5, median, current study n = 5
[17] = JR-FL, current study n = 5, mean

COC[C@@H](c1ccc(C(F)(F)F)cc1)N1CCN(C2(C)CCN(C(=O)c3c(C)ncnc3C)CC2)C[C@@H]1C [SCH-D, 1-[(4,6-dimethyl-5-pyrimidinyl)carbonyl]-4-[4-[2-methoxy-1(R)-4-(trifluoromethyl)phenyl]ethyl-3(S)-methyl-1-piperazinyl]-4-methylpiperidine]
mean reductions in HIV-1 RNA levels [1]: ~1 log10

B1: PRO 140: humanized IgG4,κ anti-CCR5 monoclonal antibody, humanized version of murine mAb PA14 (antibody, chains of the INN, looked up, V domains shown)
VH: EVQLVESGGGLVKPGGSLRLSCAASGYTFSNYWIGWVRQAPGKGLEWIGDIYPGGNYIRNNEKFKDKTTLSADTSKNTAYLQMNSLKTEDTAVYYCGSSFGSNYVFAWFTYWGQGTLVTVSS
VL: DIVMTQSPLSLPVTPGEPASISCRSSQRLLSSYGHTYLHWYLQKPGQSPQLLIYEVSNRFSGVPDRFSGSGSGTDFTLKISRVEAEDVGVYYCSQSTHVPLTFGQGTKVEIK
EC50 (mean) [2, 13]: <7.7 µg/mL | EC90 (mean) [2, 13]: 23 µg/mL | EC90 (median) ([2]; HIV-1 CC 1/85, R5, median, current study n = 5): 6.0 µg/mL | MPI (maximum percent inhibition) ([2]; R5 HIV-1 CC 1/85, individual assays (Source)): 94% and 93% and 102% and 95% | MPI, Median ([2]; R5 HIV-1 CC 1/85, median of assays): 95% | IC90 [3]: about 4 μg/ml | EC50 (median) ([4]; HIV-2 310072, R5): 0.08 µg/mL | EC90 (median) ([4]; HIV-2 310072, R5): 1.4 µg/mL | MPI (maximum percent inhibition) ([4]; R5 HIV-2 310072, individual assays (Source)): 92% and 96% and 97% | MPI, Median ([4]; R5 HIV-2 310072, median of assays with R^2 >= 0.7): 96% | time cells remain partially coated ([5]; single 2 mg/kg dose): > 4 weeks | time cells remain partially coated ([5]; single 5 mg/kg dose): > 60 days | EC50 (median) ([6]; HIV-2 77618, R5X4): >100 µg/mL | EC90 (median) ([6]; HIV-2 77618, R5X4): >100 µg/mL | MPI: Maximum percent inhibition as determined from the plateau of the sigmoidal curve fit ([6]; Virus: R5X4 HIV-2 77618, individual experiments (Source)): 6% and −2% | MPI, Median ([6]; Virus: R5X4 HIV-2 77618, median of experiments): 2% | Development of Resistance In Vitro [7]: None at 40 weeks | EC50 (median) ([8]; HIV-2 A2267, R5): 0.10 µg/mL | EC90 (median) ([8]; HIV-2 A2267, R5): 98 µg/mL | MPI (maximum percent inhibition) ([8]; R5 HIV-2 A2267, individual assays (Source)): 97% and 115% and 88% and 94% and 75% | MPI, Median ([8]; R5 HIV-2 A2267, median of assays with R^2 >= 0.7): 94% | EC50 [9, 14]: 0.37 µg/mL and 0.003 µg/mL and 0.03 µg/mL and 0.28 µg/mL and 0.13 µg/mL and 0.05 µg/mL and 0.97 µg/mL and 0.39 µg/mL and <0.001 µg/mL and 0.001 µg/mL and 1.8 µg/mL and 0.24 µg/mL and 0.14 µg/mL and 0.58 µg/mL and 0.45 µg/mL and 0.06 µg/mL and 0.72 µg/mL and 1.9 µg/mL and 0.61 µg/mL and 0.69 µg/mL and 0.12 µg/mL and 0.02 µg/mL and 2.7 µg/mL and 0.48 µg/mL and 0.04 µg/mL and <0.1 µg/mL and 0.43 µg/mL | EC90 [9, 14]: 3.4 µg/mL and 0.01 µg/mL and 18 µg/mL and 5.4 µg/mL and 2.2 µg/mL and 3.1 µg/mL and 12 µg/mL and 0.02 µg/mL and <0.001 µg/mL and 0.13 µg/mL and 0.52 µg/mL and >50 µg/mL and 0.93 µg/mL and 5.8 µg/mL and 8.1 µg/mL and 8.2 µg/mL and 2.1 µg/mL and 10 µg/mL and 11 µg/mL and 0.22 µg/mL and 3.7 µg/mL and 22 µg/mL and 1.2 µg/mL and 34 µg/mL | EC50 (mean) ([9]; previous studies n = 33, mean): <0.41 µg/mL | EC90 (mean) ([9]; previous studies n = 33, mean): >10 µg/mL | EC50 (median) [9, 15]: 0.13 µg/mL | EC90 (median) [9, 15]: 3.4 µg/mL | EC50 (median) [10]: >100 µg/mL | EC90 (median) [10]: >100 µg/mL | Terminal half life [11]: approximately 4 d | EC50 (median) [12, 16]: 0.09 µg/mL | EC90 (median) [12, 16]: 7.0 µg/mL | EC50 (mean) [12, 17]: <0.97 µg/mL | EC90 (mean) [12, 17]: 22 µg/mL | MPI (maximum percent inhibition) ([12]; R5 HIV-1 JR-FL, individual assays (Source)): 100% and 103% and 101% and 110% | MPI, Median ([12]; R5 HIV-1 JR-FL, median of assays with R^2 >= 0.7): 102%
